Target: T1, Pwl2 without the signal peptide (residues 22-145) (Magnaporthe oryzae, UniProt G5EI71 22-145)
T1 sequence: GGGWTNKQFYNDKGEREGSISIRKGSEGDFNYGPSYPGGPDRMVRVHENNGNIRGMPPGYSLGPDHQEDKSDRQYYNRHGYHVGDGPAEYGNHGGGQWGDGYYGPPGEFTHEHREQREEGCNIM
Assay: ITC

B1: HMA domain of OsHIPP43 (residues 26-101) (domain or fragment)
chain: RPLQTVNIKVKMDCEGCERRVKNAVKSMRGVTSVAVNPKQSRCTVTGYVEASKVLERVKSTGKAAEMWPYVPYTMT
- Kd: 191 nM
- dH: -67.6 kcal/mol

— article doi:10.1101/2024.01.20.576400 (bioRxiv, 2024)
